Measurements published in patent US20090311265A1.

Target: HA of BPL-inactivated virus preparation of strain A/New Caledonia/20/99 (H1N1) (influenza A virus A/New Caledonia/20/99 (H1N1))
Experiment: ELISA, coated inactivated virus, IgG 5 µg/ml

B1: CR6329 (antibody, V domains shown)
VH: EVQLVQSGAEVKKPGSSVKVSCKASGGIFRSNSISWVRQAPGQGLEWMGGIFALFGTTDYAQKFQGRVTITADESSTTVYLELSSLTSEDTAVYYCARGSGYTTRNYFDYWGQGTLVTVSS
VL: EIVLTQSPGTLSLSPGERATLSCRASQSVSSNYLGWYQQKPGQAPRLLIYGASSRASGIPDRFSGGGSGTDFTLTISRLEPEDFAVYYCQQYGSSPLTFGGGTKVEIKR
OD 492 nm: 1.04 OD 492 nm
